Literature values as cited in article PMC12692374.

Biological target: HIV-1 capsid (Human immunodeficiency virus 1) (UniProt O93182)
Sequence (O93182 133-363): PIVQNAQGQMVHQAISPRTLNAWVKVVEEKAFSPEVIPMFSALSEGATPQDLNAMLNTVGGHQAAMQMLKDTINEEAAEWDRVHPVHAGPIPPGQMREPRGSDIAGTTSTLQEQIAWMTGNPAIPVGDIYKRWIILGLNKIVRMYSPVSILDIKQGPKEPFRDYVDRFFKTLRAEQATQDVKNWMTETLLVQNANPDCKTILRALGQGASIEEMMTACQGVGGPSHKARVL

NONO, sequence (Q15233 whole entry): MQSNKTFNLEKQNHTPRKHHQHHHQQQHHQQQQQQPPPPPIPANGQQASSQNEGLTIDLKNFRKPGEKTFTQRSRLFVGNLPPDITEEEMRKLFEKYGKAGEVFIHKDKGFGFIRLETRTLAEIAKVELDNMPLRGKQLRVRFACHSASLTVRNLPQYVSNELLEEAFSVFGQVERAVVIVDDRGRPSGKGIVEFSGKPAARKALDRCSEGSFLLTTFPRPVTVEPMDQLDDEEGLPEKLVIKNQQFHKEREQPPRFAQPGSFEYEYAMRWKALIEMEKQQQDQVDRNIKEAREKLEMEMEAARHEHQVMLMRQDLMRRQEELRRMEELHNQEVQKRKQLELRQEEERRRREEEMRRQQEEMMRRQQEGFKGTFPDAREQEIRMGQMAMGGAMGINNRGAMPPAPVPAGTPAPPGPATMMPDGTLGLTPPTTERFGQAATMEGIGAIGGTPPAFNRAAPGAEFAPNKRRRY

## NONO (from UniProt Q15233)
  Kd: 9.15 µM
